Experimental data reported in paper PMC7124252.

Legend:
CTCF (human) [1] = target: T1, CTCF (human) (UniProt P49711); assay: EMSA; details: 10 mM Tris (pH not stated), 50 mM KCl, 5 mM MgCl2, 0.1 mM ZnSO4, 1 mM DTT, 0.1% NP-40, 50 ng/µl poly(dI-dC), 2.5% glycerol, 20 fmol probe, 30 min at 25 C
T1 sequence: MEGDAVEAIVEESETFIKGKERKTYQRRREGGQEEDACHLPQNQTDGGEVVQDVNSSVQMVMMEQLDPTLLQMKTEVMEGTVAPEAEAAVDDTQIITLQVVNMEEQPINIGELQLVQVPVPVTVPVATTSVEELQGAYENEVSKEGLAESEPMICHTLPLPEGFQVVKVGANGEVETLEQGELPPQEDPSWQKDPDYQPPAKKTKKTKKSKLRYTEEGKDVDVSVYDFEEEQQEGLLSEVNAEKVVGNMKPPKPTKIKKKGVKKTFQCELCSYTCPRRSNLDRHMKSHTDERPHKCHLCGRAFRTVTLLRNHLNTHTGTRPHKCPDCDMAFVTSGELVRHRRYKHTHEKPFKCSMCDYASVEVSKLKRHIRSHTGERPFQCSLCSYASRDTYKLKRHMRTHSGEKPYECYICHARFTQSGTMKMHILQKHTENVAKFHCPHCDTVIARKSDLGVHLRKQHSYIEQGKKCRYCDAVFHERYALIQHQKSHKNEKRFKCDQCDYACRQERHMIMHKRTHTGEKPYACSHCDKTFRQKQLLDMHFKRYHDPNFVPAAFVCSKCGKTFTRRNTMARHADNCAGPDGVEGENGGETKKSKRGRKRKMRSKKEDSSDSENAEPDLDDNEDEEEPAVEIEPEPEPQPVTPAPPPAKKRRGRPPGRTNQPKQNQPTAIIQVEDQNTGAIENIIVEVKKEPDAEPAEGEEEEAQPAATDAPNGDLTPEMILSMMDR

CTCF (human) [2] = assay: EMSA; set-up: unit not given here; details: 10 mM Tris (pH not stated), 50 mM KCl, 5 mM MgCl2, 0.1 mM ZnSO4, 1 mM DTT, 0.1% NP-40, 50 ng/µl poly(dI-dC), 2.5% glycerol, 20 fmol probe, 30 min at 25 C

TCAGTGCAGGGTCAAGGTCTACCTTGTATGCAACTCGAGCCGGGCATTTCTTCCCCAACCCCAGAGGTGGGGACATGTGTTTCAGCATCTCAAACATGTCATTGTAACTGATGCGCCCACTGGAAACCCGTTCCAGAGG (double strand) [Cacna1b e37b DNA probe (139 bp)]
binding (CTCF (human) [1]): no binding

ACCTGTAACATTTCCTTTCCAGTTGCCGGATTCATTATAAGGATATGTACAGTTTGTTGCGTTGTATTGCGCCACCCGTTGGCTTAGGAAAGAACTGCCCTCGTAGGTTGGCCTACAAGGTTTGCAACTTCAGAGCCTC (double strand) [Cacna1b e37a DNA probe (139 bp)]
binding signal (CTCF (human) [1]): binds

Cacna1b e37a DNA probe (139 bp)
Kd (CTCF (human) [2]): 0.0461
